For two substances, percent of particles in double-hexamer class averages and binding signal results are on record in publication PMC11711466.

For series [1], the target named is budding yeast MCM2-7 complex (budding yeast) (UniProt P29469). Kind of series: negative-stain EM (2D class averages); eluates of pre-RC reactions with ATP washed with 300 mM NaCl (high salt); complexes on DNA.
Series [2] addresses hORC1-5;hORC6;hCDC6;hCDT1deltaN;hMCM2-7 (human;human;human;human;human) (UniProt Q13415+Q13416+Q9UBD5+O43929+O43913+Q9Y5N6+Q99741+Q9H211+P49736+P25205+P33991+P33992+Q14566+P33993). Kind of series: bead pull-down (pre-RC assay). The conditions noted are these: ATP, high-salt wash; CDT1 form inferred; 25 mM HEPES-KOH pH 7.5, 250 mM KGlu, 1 mM DTT, 4 mM MgOAc, 0.1% Triton X-100, 1 mM ATP or ATPgS, 30 C; high-salt wash adds 300 mM NaCl; in-solution: …; scale: fold higher hMCM2-7 signal than without hORC6.

Series [3] addresses hORC1-5;hCDC6;hCDT1deltaN;hMCM2-7 (human;human;human;human) (UniProt Q13415+Q13416+Q9UBD5+O43929+O43913+Q99741+Q9H211+P49736+P25205+P33991+P33992+Q14566+P33993). Kind of series: bead pull-down (pre-RC assay). The conditions noted are these: ATP, high-salt wash, no hORC6; CDT1 form inferred; 25 mM HEPES-KOH pH 7.5, 250 mM KGlu, 1 mM DTT, 4 mM MgOAc, 0.1% Triton X-100, 1 mM ATP or ATPgS, 30 C; high-salt wash adds 300 mM NaCl; in-solution: …; scale: fold reduction of hMCM2-7 signal vs with hORC6.

Consider “budding yeast MCM2-7 complex, P29469 1-868; P24279 1-971; P30665 1-933; P29496 1-775; P53091 1-1017; P38132 1-845”, for which the percent of particles in double-hexamer class averages in series [1] amounted to 91%.

For the substance “lamin B2 origin DNA for pre-RC / hOCCM (2 or 3 kbp)”, the binding signal in series [2] and in series [3] was 1.8 each time.
